# Source: patent US20240317845A1 (NINGBO SANSHENG BIOLOGICAL TECHNOLOGY, published 2024)
# Assays:
# [1] = biological target: T1, 6-25 fragment of inhibin α-subunits coupled to chicken ovalbumin (OVA) (porcine (fragment said to be 100% …, UniProt P01012 2-386, chemically coupled to chicken ovalbumin (OVA))); experiment: indirect ELISA, plate coated with 6-25 fragment-OVA, culture supernatant, replicate 1
# T1 construct: also called antigenic peptide; 6-25 fragment of inhibin a subunits
# Procedure: (§1) The 6-25 fragment of inhibin α-subunits coupled to chicken ovalbumin (OVA) were diluted to a sodium bicarbonate solution having a pH9.6 at a concentration of 10 μg/ml, and 100 μl per well was added to the microtiter plate (96 well plate). The plate was set aside overnight at 2-8° C. overnight, and taken out for washing and then patted dry next day, 5% BSA was added into the plate to block, 200 μl per well, and incubated at 37° C. for 1 h;
# (§2) The plate was washed and patted dry. 100 μl of the fused culture supernatant was taken under aseptical conditions, added to the microtiter plate, and incubated at 37° C. for 1 h;
# (§3) After washing the plate, chromogenic solution was added into the plate, 100 μl per well, and incubated at 37° C. for 5-10 minutes. 50 μl of stop solution was added into the plate, and the absorbance value was read at a wavelength of 460 nm.
# [2] = biological target: T1, 6-25 fragment of inhibin α-subunits …; experiment: indirect ELISA, plate coated with 6-25 fragment-OVA, culture supernatant, replicate 2
# Procedure: as §1, §2, §3
# T1 sequence (peptide, as listed by the source limits assumed, chain 1 of 2): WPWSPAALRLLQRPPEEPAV
# T1 sequence (P01012 2-386 limits assumed, chain 2 of 2): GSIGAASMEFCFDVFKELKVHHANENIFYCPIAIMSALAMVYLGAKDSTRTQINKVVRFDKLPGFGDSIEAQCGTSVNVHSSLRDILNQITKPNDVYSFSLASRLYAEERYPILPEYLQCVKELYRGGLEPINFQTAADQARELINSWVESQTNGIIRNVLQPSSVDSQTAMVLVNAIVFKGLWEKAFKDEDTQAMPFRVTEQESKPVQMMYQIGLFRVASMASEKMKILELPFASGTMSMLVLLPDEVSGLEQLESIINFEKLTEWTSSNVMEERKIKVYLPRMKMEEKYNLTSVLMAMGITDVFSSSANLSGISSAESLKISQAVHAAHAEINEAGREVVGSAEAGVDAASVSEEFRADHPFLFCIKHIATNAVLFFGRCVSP
binder,measurement,setting,value
"anti-inhibin monoclonal antibody 1E5 secreted by hybridoma cell line 1E57 (antibody, V domains shown, Mouse hybridoma antibody; Tested as culture supernatant, as ascites and as Protein G purified ascites antibody; also called 1E57 culture supernatant; ascites-derived monoclonal antibody 1E5) VH: EVKLVESGPELKKPGETVKISCKASGYTFTDYSMHWVKQAPGKGLKWMGWINTETGEPTYADDFKGRFAFSLETSASTAYLQINNLKNEDTATYFCAYYGPPTYSLDYWGQGASVTVSS VL: DIQMTQTTSSLSASLGDRVTISCRASQGISNYLNWYQQKPDGTVKLLIYYTSRLLSGVPSRFSGSGSGTDYSLTISNLEQEDIATYFCQQGYTLPFTFGSGTKLEIK",absorbance at dilution ratio 200,[1],3.31 absorbance
same,absorbance at dilution ratio 400,[1],2.8 absorbance
same,absorbance at dilution ratio 800,[1],2.92 absorbance
same,absorbance at dilution ratio 1600,[1],2.28 absorbance
same,absorbance at dilution ratio 3200,[1],1.69 absorbance
same,absorbance at dilution ratio 6400,[1],1.28 absorbance
same,absorbance at dilution ratio 12800,[1],0.823 absorbance
same,absorbance at dilution ratio 25600,[1],0.613 absorbance
same,absorbance at dilution ratio 51200,[1],0.359 absorbance
same,absorbance at dilution ratio 102400,[1],0.263 absorbance
same,absorbance at dilution ratio 200,[2],3.25 absorbance
same,absorbance at dilution ratio 400,[2],2.36 absorbance
same,absorbance at dilution ratio 800,[2],2.08 absorbance
same,absorbance at dilution ratio 1600,[2],1.9 absorbance
same,absorbance at dilution ratio 3200,[2],1.43 absorbance
same,absorbance at dilution ratio 6400,[2],0.831 absorbance
same,absorbance at dilution ratio 12800,[2],0.648 absorbance
same,absorbance at dilution ratio 25600,[2],0.398 absorbance
same,absorbance at dilution ratio 51200,[2],0.256 absorbance
same,absorbance at dilution ratio 102400,[2],0.189 absorbance
